Measured values published in US20170166631A1 (published 2017).
Read-outs that look alike come from different tables or passages of the source.

Assays:
Test in all cases: ELISA
[1] = molecular target: T1, HD21 (huntingtin exon 1 protein with 21 polyQ repeats after cleavage of the GST tag; aggregation reaction) (human, UniProt P42858 1-88)
T1 chain: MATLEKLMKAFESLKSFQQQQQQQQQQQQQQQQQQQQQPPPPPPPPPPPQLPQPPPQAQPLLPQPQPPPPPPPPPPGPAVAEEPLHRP

[2] = molecular target: T2, HD49 (huntingtin exon 1 protein with 49 polyQ repeats after cleavage of the GST tag; aggregation reaction) (human, UniProt P42858 1-88)
T2 chain: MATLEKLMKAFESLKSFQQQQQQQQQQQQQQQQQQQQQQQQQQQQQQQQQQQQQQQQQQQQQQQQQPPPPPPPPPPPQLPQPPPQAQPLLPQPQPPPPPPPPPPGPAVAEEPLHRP

[3] = molecular target: T3, GST-HttExon1Q21 (recombinant huntingtin exon 1 protein with 21 polyQ repeats fused to an N-terminal GST tag) (;human, UniProt P08515 1-218 = GST; P42858 1-88)
[4] = molecular target: T1, HD21 (huntingtin exon 1 protein with 21 …)
[5] = molecular target: T2, HD49 (huntingtin exon 1 protein with 49 …)
[6] = molecular target: T3, GST-HttExon1Q21 (recombinant huntingtin …); remark: listed apart in the source
Target sequence in this assay (P08515 1-218, tags or fused parts left off): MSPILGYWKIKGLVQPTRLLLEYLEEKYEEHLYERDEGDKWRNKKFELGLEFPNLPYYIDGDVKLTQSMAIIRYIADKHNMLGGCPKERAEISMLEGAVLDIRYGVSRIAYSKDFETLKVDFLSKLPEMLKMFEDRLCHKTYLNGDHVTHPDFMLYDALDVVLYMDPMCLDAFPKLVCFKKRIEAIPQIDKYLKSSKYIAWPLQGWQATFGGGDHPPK

[7] = molecular target: T1, HD21 (huntingtin exon 1 protein with 21 …)
[8] = molecular target: T2, HD49 (huntingtin exon 1 protein with 49 …)
[9] = molecular target: T3, GST-HttExon1Q21 (recombinant huntingtin …); remark: listed apart in the source
[10] = molecular target: T4, BSA-coupled synthetic peptide of the P-rich domain sequence of huntingtin exon 1 (coupled to BSA)
T4 peptide: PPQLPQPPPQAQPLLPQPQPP

[11] = molecular target: T1, HD21 (huntingtin exon 1 protein with 21 …)
[12] = molecular target: T2, HD49 (huntingtin exon 1 protein with 49 …)
[13] = molecular target: T3, GST-HttExon1Q21 (recombinant huntingtin …); remark: listed apart in the source
Target sequence in this assay (P08515 1-218, tags or fused parts left off): as the sequence (P08515 1-218, tags or fused parts left off) above

[14] = molecular target: T1, HD21 (huntingtin exon 1 protein with 21 …)
[15] = molecular target: T2, HD49 (huntingtin exon 1 protein with 49 …)
[16] = molecular target: T3, GST-HttExon1Q21 (recombinant huntingtin …); remark: listed apart in the source
[17] = molecular target: T1, HD21 (huntingtin exon 1 protein with 21 …)
[18] = molecular target: T2, HD49 (huntingtin exon 1 protein with 49 …)
[19] = molecular target: T3, GST-HttExon1Q21 (recombinant huntingtin …); remark: listed apart in the source
[20] = molecular target: T1, HD21 (huntingtin exon 1 protein with 21 …)
[21] = molecular target: T3, GST-HttExon1Q21 (recombinant huntingtin …); remark: listed apart in the source
[22] = molecular target: T5, BSA-coupled synthetic peptide of the 14 C-terminal amino acids of huntingtin exon 1 (coupled to BSA)
T5 peptide: PPGPAVAEEPLHRP

[23] = molecular target: T1, HD21 (huntingtin exon 1 protein with 21 …)
[24] = molecular target: T2, HD49 (huntingtin exon 1 protein with 49 …)
[25] = molecular target: T3, GST-HttExon1Q21 (recombinant huntingtin …); remark: listed apart in the source
[26] = molecular target: T6, BSA-coupled synthetic peptide of the polyP repeat sequence of huntingtin exon 1 (coupled to BSA)
T6 peptide: PPPPPPPPPPP

B1: NI-302.11A4 (antibody, V domains shown)
VH: EVQLVESGGGLIQPGGSLRLSCAASGFPVSSSYMSWVRQAPGEGLEWVSVLYRDGDTYYADSVQGRFTISRDNSQNTFYLQMNSLKAEDTAVYYCAGDRRSSHYYYGMDVWGQGTTVTVSS
VL: EIVMTQSPGTLSLSPGERATLSCRASQSVSSSYFAWYQQKPGQAPRLLIYGTSRRATAIPDRFSGSGSGTDFTLTISRLEPEDFAVYYCQQYGSSWTFGPGTKVEIK
EC50 [1]: 18.2 nM
EC50 [2]: 19 nM
EC50 [3]: 1.4 nM
EC50 [4]: 18 nM
EC50 [5]: 19 nM
EC50 [6]: 1.4 nM

B2: NI-302.39G12 (antibody, V domains shown)
VH: EVQLVQSGGGLVHPWGSLRLSCAASGFSVSNYAITWVRRAPGKGLQYISVIYRDGRTYYGDSVRGRFTISRDDSKNTLYLQMNSLRFEDTAVYYCARAHGQYYYGVDVWGQGTTVTVSS
VL: DVVMTQSPLSLSVSPGEPASISCRSSQSLLHSNGYNYLDWYRQKPGQSPQLLIYLSSNRPSGVPDRFSASGSGTEFTLQISRVEAEDVGVYYCMQSLQTFTFGGGTKVDIK
EC50 [1]: 15 nM
EC50 [2]: 28 nM
EC50 [3]: 3.4 nM
EC50 [4]: 15 nM
EC50 [5]: 28 nM
EC50 [6]: 3.4 nM

B3: NI-302.64E5 (antibody, V domains shown)
VH: EVQLVETGGGLVKPGGSLRLSCAASGFTFDQAWMSWVRQVPGKGLEWVGRIKTKTEGEATDYAAPVRGRFTISRDDSEDTVFLQMNSLKTEDTALYYCTSTGVLAAAVDVYWGQGTLVTVSS
VL: DIQLTQSPDSLAVSLGERATMTCKSSQSLFYSYNNENYLAWYQQRPGQPPKLLIYWASTRESGVPDRFSGSGSGTDFTLTISSLQAEDVAVYYCQQYYSTPQTFGQGTKVDIK
EC50 [7]: 0.7 nM
EC50 [8]: 1.6 nM
EC50 [9]: 1.4 nM
EC50 [10]: 0.1 nM
EC50 [11]: 0.7 nM
EC50 [12]: 1.6 nM
EC50 [13]: 1.4 nM

B4: NI-302.63F3 (antibody, V domains shown)
VH: QVQLVQSGSAFKKPGTSVKVSCKASGYTFETRSMNWVRQAPGQGLEYMGWINTNTGNRTYVQAFRGRFVFSLDTSVSTAYLQISNLKTEDTAVYYCARGAGGGYWFDSWGQGTLVTVSS
VL: DIQMTQSPDSLAVSLGERATINCKSNQSLFYSSNNNNYLAWYQHKSGQPPKLLVYWGSTRESGVPDRFSGSGSGTDFTLTISSLQAEDVAIYYCHQYYHNPYTFGQGTKLEIK
EC50 [14]: 0.3 nM
EC50 [15]: 0.4 nM
EC50 [16]: 0.2 nM
EC50 [10]: 0.3 nM
EC50 [11]: 0.3 nM
EC50 [12]: 0.4 nM
EC50 [13]: 0.2 nM

B5: NI-302.15E8 (antibody, V domains shown)
VH: EVQLVESGGGLIQPGGSLRLSCAVSGFTVSSYSMNWVRQAPGKGLEWVSYTSSSRSNTKKYADSVKGRFTISRDNARNSLYLQMNSLRDEDTAVYYCARAGDFGELLTGEGYYGMDVWGQGTTVTVSS
VL: SYELTQPPSVSVSPGQTATITCSGDELGDKYVGWYQQKPGQSPLLVIYQDAKRPSGIPERFSGSNSGNTATLTISGTQAMDEADYYCQAWDSGTMVFGGGTRLTVL
EC50 [11]: > 100 nM
EC50 [12]: > 100 nM
EC50 [13]: 9.3 nM
EC50 [17]: > 100 nM
EC50 [18]: > 100 nM
EC50 [19]: 9.3 nM

B6: NI-302.35C1 (antibody, V domains shown)
VH: EVQLVESGGNLVQPGGSLRLSCTASGFTFSITALSWVRQAPEKGPQWVSAITGNAYGTYYADSVKGRFTISRDNAKNTLYLQMNGLRAEDTAIYYCVKGIASDSSGYSAFWGPGTLVTVSS
VL: EIVLTQSPATLSLSPGERATLSCRASQSVDNQFAWYQQKPGQAPRLLIYDASRRAPGIPDRFSGSGSGTDFTLTISSLEPEDFAIYYCQHRYTWLYTFGQGTRLEIK
EC50 [11]: 7.9 nM
EC50 [13]: 4.6 nM
EC50 [20]: 7.9 nM
EC50 [21]: 4.6 nM

B7: NI-302.72F10 (antibody, V domains shown)
VH: EVQLVETGGGFVQPGGSLRLSCAASGFNFGSYAMSWVRQAPGKGLEWVSDISGIGSNTYYADSVKGRFTISRDNSDNTLYLDMSSLRAEDTARYYCAKDRKRSGWYEQWGQGTLVTVSS
VL: EIVMTQSPATLTLSPGERATLSCRASQSISAYLGWYQQKPGQAPRLLIYDASIRATGIPDRFSGSGSGTDFTLTISSLEPEDSAVYYCHQRSKWPLTFGGGTKVEIK
EC50 [7]: 4 nM
EC50 [8]: 26 nM
EC50 [9]: 10 nM
EC50 [11]: 4 nM
EC50 [12]: 26 nM
EC50 [22]: 0.1 nM
EC50 [13]: 10 nM

B8: NI-302.33C11 (antibody, V domains shown)
VH: EVQLVESGGGVVQPGNSLRLSCAASGFRFSDFGMHWVRQAPGKGLEWLALIWYDGGYKYYADSVKGRFTISRDNSKNTMFLQMNSLRAEDTAVYYCATHLEYCSRTTCYLGHWGQGTLVTVSS
VL: DIQLTQSPSFLSASVGDTVTFTCRASQGISDYLAWFQQKPGIAPKLLIYAASTLQTGVPSRFSGSGSGTEFTLTIRSLQSEDFGTYYCQQLKTYPYTFGQGTKVEIK
EC50 [23]: 0.13 nM
EC50 [24]: 0.15 nM
EC50 [25]: 0.11 nM
EC50 [26]: 0.1 nM
EC50 [11]: 0.13 nM
EC50 [12]: 0.15 nM
EC50 [13]: 0.11 nM
